Experimental data as given in patent US20250163449A1, “HERBICIDE-TOLERANT GENES AND METHOD FOR USING SAME” (QINGDAO KINGAGROOT CHEMICAL COMPOUND CO., LTD., priority 2022, published 2025).

B1: SEQ ID NO: 10 (protein)
chain: MHAALSPLSQRFERIAVQPLTGVLGAEITGVDLREPLDDSTWNEILDAFHTYQVIYFPGQAITNEQHIAFSRRFGPVDPVPHLKSIEGYPEVQMIRREANESGRVIGDDWHTDSTFLDAPPAAVVMRAIDVPEHGGDTGFLSMYTAWETLSPTMQATIEGLNVVHSATRVFGSLYQAQNRRFSNTSMKVMDVDAGDRETVHPLVVTHPGSGRKGLYVNQVYCQRIEGMTDAESKPLLQFLYEHATRFDFTCRVRWKKDQVLVWDNLCTMHRAVPDYAGKFRYLTRTTVGGVRPAR
B2: SEQ ID NO: 62 (protein)
chain: MHAALSPLSQRFERIAVQPLTGVLGAEITGVDLREPLDDSTWNEILDAFHTYQVIYFPGQAITNEQHIAFSRRFGPVDPVPHLKSIEGYPEVQMIRREANESGGVIGCDWHTDSTFLDAPPAAVVMRAIDVPEHGGDTGFLSMYTAWETLSPTMQATIEGLNVVHSATRVFGSLYQAQNRRWSNTSLKVMDVDAGDRETVHPLVVTHPGSGRKGLYVNQVYCQRIEGMTDAESKPLLQFLYEHATRFDFTCRVRWKKDQVLVWDNLCTMHRAVPDYAGKFRYLTRTTVGGVRPAR
B3: SEQ ID NO: 30 (protein)
chain: MHAALSPLSQRFERIAVQPLTGVLGAEITGVDLREPLDDSTWNEILDAFHTYQVIYFPGQAITNEQHIAFSRRFGPVDPVPHLKSIEGYPEVQMIRREANESGRVIGDDWHTDSTFLDAPPAAVVMRAIDVPEHGGDTGFLSMYTAWETLSPTMQATIEGLNVVHSATRVFGSLYQAQNRRWSNTSLKVMDVDAGDRETVHPLVVTHPGSGRKGLYVNQVYCQRIEGMTDAESKPLLQFLYEHATRFDFTCRVRWKKDQVLVWDNLCTMHRAVPDYAGKFRYLTRTTVGGVRPAR
B4: SEQ ID NO: 26 (protein)
chain: MHAALSPLSQRFERIAVQPLTGVLGAEITGVDLREPLDDSTWNEILDAFHTYQVIYFPGQAITNEQHIAFSRRFGPVDPVPHLKSIEGYPEVQMIRREANESGLVIGDDWHTDSTFLDAPPAAVVMRAIDVPEHGGDTGFLSMYTAWETLSPTMQATIEGLNVVHSATRVFGSLYQAQNRRFSNTSLKVMDVDAGDRETVHPLVVTHPGSGRKGLYVNQVYCQRIEGMTDAESKPLLQFLYEHATRFDFTCRVRWKKDQVLVWDNLCTMHRAVPDYAGKFRYLTRTTVGGVRPAR
B5: SEQ ID NO: 18 (protein)
chain: MHAALSPLSQRFERIAVQPLTGVLGAEITGVDLREPLDDSTWNEILDAFHTYQVIYFPGQAITNEQHIAFSRRFGPVDPVPHLKSIEGYPEVQMIRREANESGAVIGDDWHTDSTFLDAPPAAVVMRAIDVPEHGGDTGFLSMYTAWETLSPTMQATIEGLNVVHSATRVFGSLYQAQNRRFSNTSLKVMDVDAGDRETVHPLVVTHPGSGRKGLYVNQVYCQRIEGMTDAESKPLLQFLYEHATRFDFTCRVRWKKDQVLVWDNLCTMHRAVPDYAGKFRYLTRTTVGGVRPAR
B6: SEQ ID NO: 22 (protein)
chain: MHAALSPLSQRFERIAVQPLTGVLGAEITGVDLREPLDDSTWNEILDAFHTYQVIYFPGQAITNEQHIAFSRRFGPVDPVPHLKSIEGYPEVQMIRREANESGDVIGDDWHTDSTFLDAPPAAVVMRAIDVPEHGGDTGFLSMYTAWETLSPTMQATIEGLNVVHSATRVFGSLYQAQNRRFSNTSLKVMDVDAGDRETVHPLVVTHPGSGRKGLYVNQVYCQRIEGMTDAESKPLLQFLYEHATRFDFTCRVRWKKDQVLVWDNLCTMHRAVPDYAGKFRYLTRTTVGGVRPAR
B7: SEQ ID NO: 14 (protein)
chain: MHAALSPLSQRFERIAVQPLTGVLGAEITGVDLREPLDDSTWNEILDAFHTYQVIYFPGQAITNEQHIAFSRRFGPVDPVPHLKSIEGYPEVQMIRREANESGRVIGDDWHTDSTFLDAPPAAVVMRAIDVPEHGGDTGFLSMYTAWETLSPTMQATIEGLNVVHSATRVFGSLYQAQNRRFSNTSIKVMDVDAGDRETVHPLVVTHPGSGRKGLYVNQVYCQRIEGMTDAESKPLLQFLYEHATRFDFTCRVRWKKDQVLVWDNLCTMHRAVPDYAGKFRYLTRTTVGGVRPAR
B8: SEQ ID NO: 34 (protein)
chain: MHAALSPLSQRFERIAVQPLTGVLGAEITGVDLREPLDDSTWNEILDAFHTYQVIYFPGQAITNEQHIAFSRRFGPVDPVPHLKSIEGYPEVQMIRREANESLRVIGDDWHTDSTFLDAPPAAVVMRAIDVPEHGGDTGFLSMYTAWETLSPTMQATIEGLNVVHSATRVFGSLYQAQNRRFSNTSLKVMDVDAGDRETVHPLVVTHPGSGRKGLYVNQVYCQRIEGMTDAESKPLLQFLYEHATRFDFTCRVRWKKDQVLVWDNLCTMHRAVPDYAGKFRYLTRTTVGGVRPAR
B9: SEQ ID NO: 66 (protein)
chain: MHAALSPLSQRFERIAVQPLTGVLGAEITGVDLREPLDDSTWNEILDAFHTYQVIYFPGQAITNEQHIAFSRRFGPVDPVPHLKSIEGYPEVQMIRREANESGGVIGDEWHTDSTFLDAPPAAVVMRAIDVPEHGGDTGFLSMYTAWETLSPTMQATIEGLNVVHSATRVFGSLYQAQNRRWSNTSLKVMDVDAGDRETVHPLVVTHPGSGRKGLYVNQVYCQRIEGMTDAESKPLLQFLYEHATRFDFTCRVRWKKDQVLVWDNLCTMHRAVPDYAGKFRYLTRTTVGGVRPAR
B10: SEQ ID NO: 74 (protein)
chain: MHAALSPLSQRFERIAVQPLTGVLGAEITGVDLREPLDDSTWNEILDAFHTYQVIYFPGQAITNEQHIAFSRRFGPVDPVPHLKSIEGYPEVQMIRREANESGGVIGDDWHTDSTFLDAPPAAVVMRAIDVPEHGGDTGFLSMYTAWETLSPTMQATIEGLNVVHSATRVFGSLYQAQNRRWSNTSLKVMDVDAGDRETVHPLVVTHPGSGRKGLYVNPVYCQRIEGMTDAESKPLLQFLYEHATRFDFTCRVRWKKDQVLVWDNLCTMHRAVPDYAGKFRYLTRTTVGGVRPAR
B11: SEQ ID NO: 70 (protein)
chain: MHAALSPLSQRFERIAVQPLTGVLGAEITGVDLREPLDDSTWNEILDAFHTYQVIYFPGQAITNEQHIAFSRRFGPVDPVPHLKSIEGYPEVQMIRREANESGGVIGDDWHTDSTFLDAPPAAVVMRAIDVPEHGGDTGFLSMYTAWETLSPTMQATIEGLNVVHSATRVFGSLYQAQNRRWSNTSLKVMDVDAGDRETVHPLVVTHPGSGRKGLYVNCVYCQRIEGMTDAESKPLLQFLYEHATRFDFTCRVRWKKDQVLVWDNLCTMHRAVPDYAGKFRYLTRTTVGGVRPAR
B12: SEQ ID NO: 110 (protein)
chain: MHAALSPLSQRFERIAVQPLTGVLGAEITGVDLREPLDDSTWNEILDAFHTYQVIYFPGQAITNEQHIAFSRRFGPVDPVPHLKSIEGYPEVQMIRREANESLRVIGDDWHMDSTFLDAPPAAVVMRAIDVPEHGGDTGFLSMYTAWETLSPTMQATIEGLNVVHSATRVFGSLYQAQNRRWSNTSLKVMDVDAGDRETVHPLVVTHPGSGRKGLYVNQVYCQRIEGMTDAESKPLLQFLYEHATRFDFTCRVRWKKDQVLVWDNLCTMHRAVPDYAGKFRYLTRTTVGGVRPAR
B13: SEQ ID NO: 114 (protein)
chain: MHAALSPLSQRFERIAVQPLTGVLGAEITGVDLREPLDDSTWNEILDAFHTYQVIYFPGQAITNEQHIAFSRRFGPVDPVPHLKSIEGYPEVQMIRREANESLRVIGDDWHTDSTFLDAPPAAVVMRAIDVPEHGGDTGFLSMYTAWETLSPTMQATIEGLNVVHSATRVFGSLYQAQNRRWSNTSLKVMDVDAGDRETVHPLVVTHPGSGRKGLYVNQVYCQRIEGMTDAESKPLLQFLYEHATRYDFTCRVRWKKDQVLVWDNLCTMHRAVPDYAGKFRYLTRTTVGGVRPAR
B14: SEQ ID NO: 90 (protein)
chain: MHAALSPLSQRFERIAVQPLTGVLGAEITGVDLREPLDDSTWNEILDAFHTYQVIYFPGQAITNEQHIAFSRRFGPVDPVPHLKSIEGYPEVQMIRREANESLRVIGDDWHTDSTFLDAPPAAVVMRAIDVPEHGGDTGFLSMYTAWETLSPTMQATIEGLNVVHSATRVFGSLYQAQNLRWSNTSLKVMDVDAGDRETVHPLVVTHPGSGRKGLYVNQVYCQRIEGMTDAESKPLLQFLYEHATRFDFTCRVRWKKDQVLVWDNLCTMHRAVPDYAGKFRYLTRTTVGGVRPAR
B15: SEQ ID NO: 94 (protein)
chain: MHAALSPLSQRFERIAVQPLTGVLGAEITGVDLREPLDDSTWNEILDAFHTYQVIYFPGQAITNEQHIAFSRRFGPVDPVPHLKSIEGYPEVQMIRREANESLRVIGDDWHTDSTFLDAPPAAVVMRAIDVPEHGGDTGFLSMYTAWETLSPTMQATIEGLNVVHSATRVFGSLYQAQNWRWSNTSLKVMDVDAGDRETVHPLVVTHPGSGRKGLYVNQVYCQRIEGMTDAESKPLLQFLYEHATRFDFTCRVRWKKDQVLVWDNLCTMHRAVPDYAGKFRYLTRTTVGGVRPAR
B16: SEQ ID NO: 130 (protein)
chain: MHAALSPLSQRFERIAVQPLTGVLGAEITGVDLREPLDDSTWNEILDAFHTYQVIYFPGQAITNEQHIAFSRRFGPVDPVPHLKSIEGYPEVQMIRREANESGGVIGDDWHSDSTFLDAPPAAVVMRAIDVPEHGGDTGFLSMYTAWETLSPTMQATIEGLNVVHSATRVFGSLYQAQNMRWSNTSLKVMDVDAGDRETVHPLVVTHPGSGRKGLYVNQVYCQRIEGMTDAESKPLLQFLYEHATRFDFTCRVRWKKDQVLVWDNLCTMHRAVPDYAGKFRYLTRTTVGGVRPAR

Experiment: Conversion rate of substrate compound A by E. coli expressing each engineered protein (HPLC, oxygenase activity)
Format: biochemical
Conditions: Reaction condition 1: bacteria cultured overnight, substrate compound A and IPTG added to react overnight
Excerpt: The high-throughput bacterial protein expression was achieved by cloning the synthesized gene that encodes each engineered protein into a bacterial expression vector with a C-terminal histidine tag (His-tag). The vectors were transformed into Escherichia coli (E. coli), and expression of the engineered proteins was induced. E. coli cultures were selected and cultured in centrifuge tubes overnight, meanwhile, added with substrates and IPTG, and the cultures were centrifuged to pellet the bacteria the next day. Alternatively, E. coli cultures were selected and cultured in centrifuge tubes overnight, and centrifuged to pellet the bacteria after adding substrates for reaction the next day. The supernatant of reaction solution was pipetted into a 96-well plate and the absorbance at 510 nm from 4-aminoantipyrine and potassium ferricyanide was measured by an endpoint colorimetric method to detect phenol products. Substrate reduction and product yield were measured by high performance liquid chromatography (HPLC) to detect the oxygenase activity (i.e., enzymatic activity) of the engineered proteins, and the activities of the proteins were compared by calculating conversion rates.
Conversion rate=(Peak area of initial substrate−Peak area of substrate after reaction)/Peak area of initial substrate*100%

Row | Molecule | Conversion rate [%]
1 | B1 | 94.1
2 | B2 | 90
3 | B3 | 96.5
4 | B4 | 96.8
5 | B5 | 92.1
6 | B6 | 95.5
7 | B7 | 76.8
8 | B8 | 90
9 | B9 | 94
10 | B10 | 97.2
11 | B11 | 94

Same assay, conditions: Reaction condition 2: bacteria cultured overnight, 8 times dose of substrate compound A of condition 1 added, react 3 hours the next day

Row | Molecule | Conversion rate [%]
12 | B12 | 54.6
13 | B13 | 53
14 | B14 | 57.5
15 | B15 | 63.2
16 | B16 | 88.3
